First the molecules themselves.
B1: VH:VL chains; a variant is named by its letters at X, in order (parent)
chain 1: QVQLVQSGAEVKKPGASVKVSCKASGYTFTDYXMHWVRQAPGQGLEWMGXVNPNXXXTTYNQKFEGRVTMTTDTSTSTAYMELRSLRSDDTAVYYCARXNXLDXWGQGTTVTVSS
chain 2: DIQMTQSPSSLSASVGDRVTITCSVSSSVSSIYLHWYQQKPGKAPKLLIYSTSNLASGVPSRFSGSGSGTDFTLTISSLQPEDFATYYCQVYSGYPLTFGGGTKVEIK

Variants of B1 are the subject of this series. The series can be described thus: yeast display scFab, FACS + sequencing. The method, boiled down: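 For the non-specific binding call, a heavy-chain CDR mutant scFab library on the yeast surface was FACS-sorted and samples from two replicates were deep sequenced. Cells were labelled with anti-Myc and either biotinylated ovalbumin (260 μg/mL in PBSB, 3 h, room temperature) or soluble membrane proteins (130 μg/mL, 20 min on ice), with gates on the top 25% and bottom 10% of binders. With membrane protein and ovalbumin samples pooled, a sequence in ≥3 of 4 positive samples and no negatives was scored positive, and the converse rule scored negatives.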
Regarding FATEGASA, the non-specific binding call was “no binding”.
The same measure for FEARDYWD: “binds”; for DATGGAVA: “no binding”; for DATGGSLD: “no binding”.
The same measure for YATAADWD: “no binding”; for SEARNDGA: “no binding”; for VEAGDDGA: “no binding”.
The same measure for AATTDSSS: “no binding”; for VATTDSVD: “no binding”.
Consider YATGGYAV, for which the non-specific binding call is on record as “no binding”.
The same measure for YATTSFSF: “no binding”; for VATRGFWD: “no binding”; for DATEDDSA: “no binding”.
The same measure for DATGNVWS: “binds”; for SEARSALA: “no binding”.
For the variant SEARSALV, the non-specific binding call is “no binding”.
The same measure for SEARSALD: “no binding”; for YATKGFGD: “binds”; for SARTDFWF: “binds”.
The same measure for SATKTVVV: “binds”; for YEARNAGA: “no binding”.
The same measure for YARRDVGA: “binds”; for SEARSSGF: “no binding”; for SEARSSGV: “no binding”.
On to SEARSSGY, for which the non-specific binding call is “no binding”.
The same measure for SEARSYLV: “no binding”; for SEAGDAVV: “no binding”; for DATGGSGD: “no binding”.
The same measure for DATGGSGA: “no binding”; for FEATAAGS: “binds”.
SARTDFWF chain 1 K19N: the non-specific binding call is on record as “binds”.
The same measure for DATGGSSY: “no binding”; for DATGGSSV: “no binding”; for DATGGSSS: “no binding”.
On to DATGGSSA, for which the non-specific binding call is “no binding”.
In the case of VEAGDDAA, the non-specific binding call is “no binding”.
The same measure for VEAGDDAV: “no binding”; for SATTDSVD: “no binding”.
As for VATGDSLV, the non-specific binding call was “no binding”.
The same measure for DATGGSVD: “no binding”; for VATRAVGA: “binds”.
The same measure for AATTDSVD: “no binding”; for VEAGDALV: “no binding”.
As to SEEASAVY, the non-specific binding call is given as “no binding”.
Regarding VEARGDWV, the non-specific binding call is on record as “no binding”.
The same measure for DATGGFGV: “no binding”; for SEARSDGS: “no binding”.
The same measure for SEARSDGF: “no binding”; for SEARSDGY: “no binding”; for FEAGDSGA: “no binding”.
The same measure for VEAGTAVA: “no binding”.
For SEARSAWS, the non-specific binding call is listed as “no binding”.
The same measure for SEARSAWA: “no binding”; for VEAGDDWV: “no binding”; for DATRGAGD: “no binding”.
For DATRGAGY, the non-specific binding call was “no binding”.
With FATGGSGD, the non-specific binding call is “binds”.
The same measure for DEAGGDGY: “no binding”; for SEARSSWS: “no binding”.
Take SEARSSWV: the non-specific binding call is on record as “no binding”.
FEAESYGV: the non-specific binding call was “binds”.
With DARGGSLD, the non-specific binding call was “no binding”.
The same measure for DARGGSLS: “no binding”; for VATGSSGA: “no binding”.
The same measure for DEARGAGD: “no binding”; for VARKGVGV: “binds”.
The same measure for SEEASSSA: “no binding”; for SEARSSLV: “no binding”; for SEARSSLA: “no binding”.
For the variant VEAGDDVV, the non-specific binding call was “no binding”.
The same measure for VEAGDDVY: “no binding”; for DARGGDWV: “no binding”.
The same measure for VEARGDGA: “no binding”; for YATRGAAA: “binds”; for FARKSFGS: “binds”.
The same measure for DARGGDVY: “no binding”; for DARGAYLV: “no binding”; for AEARAAGS chain 1 V37I: “binds”.
On to YATEDDWV, for which the non-specific binding call is on record as “no binding”.
The same measure for AEAGADVV: “no binding”; for YARGGAGA: “no binding”; for SEARSDSV: “no binding”.
The same measure for SEARSDSF: “no binding”; for DATGGDAD: “no binding”; for FEATASWS: “binds”.
The same measure for YATEGVWV: “binds”.
For FARKSDSS, the non-specific binding call was “no binding”.
On to AEARSDGA, for which the non-specific binding call is “no binding”.
In the case of SEARSDWD, the non-specific binding call is on record as “no binding”.
The same measure for SEARSDWA: “no binding”; for SEARSDWF: “no binding”.
The same measure for SEARSDWV: “no binding”.
The same measure for VATGDDVD: “no binding”; for VATGDDVA: “no binding”.
Turning to VATGDDVY, the non-specific binding call is given as “no binding”.
The same measure for DARGGSSY: “no binding”; for DARGGSSA: “no binding”.
Consider DARGGSSS, for which the non-specific binding call is on record as “no binding”.
The same measure for DARGGSSV: “no binding”; for FATKGAWV: “binds”; for SEARSYAV: “no binding”.
The same measure for YARRAAVS: “binds”; for VATKGFVV: “no binding”.
The same measure for FARKGDGV: “no binding”; for VEARNAGA: “no binding”.
Take VEAGDAGS: the non-specific binding call is reported as “no binding”.
The same measure for VEAGDAGD: “no binding”.
The same measure for VEAGDSSS: “no binding”; for VEAGDSSA: “no binding”; for YARRGSGV: “binds”.
Turning to VEAGDSWV, the non-specific binding call is on record as “no binding”.

The record behind these values is the emibetuzumab library of Makowski et al. (2022).
